Experimental data taken from PMC11213860, “Competitive protein recruitment in artificial cells” (Communications Chemistry, 2024).

T1: 14-3-3γ (Homo sapiens, UniProt P61981)
T1 construct: His-tagged full-length 14-3-3σ and 14-3-3γ were kindly provided by
T1 sequence (P61981 1-247): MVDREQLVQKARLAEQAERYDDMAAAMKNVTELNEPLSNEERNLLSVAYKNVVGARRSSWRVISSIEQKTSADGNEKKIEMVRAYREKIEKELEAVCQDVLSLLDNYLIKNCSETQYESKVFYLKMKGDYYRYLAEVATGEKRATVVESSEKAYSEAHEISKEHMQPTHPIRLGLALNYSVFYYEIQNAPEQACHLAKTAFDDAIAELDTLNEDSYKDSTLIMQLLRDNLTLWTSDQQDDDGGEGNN

B1: His-tagged full-length 14-3-3σ (natural protein)
chain: MERASLIQKAKLAEQAERYEDMAAFMKGAVEKGEELSCEERNLLSVAYKNVVGGQRAAWRVLSSIEQKSNEEGSEEKGPEVREYREKVETELQGVCDTVLGLLDSHLIKEAGDAESRVFYLKMKGDYYRYLAEVATGDDKKRIIDSARSAYQEAMDISKKEMPPTNPIRLGLALNFSVFHYEIANSPEEAISLAKTTFDEAMADLHTLSEDSYKDSTLIMQLLRDNLTLWTADNAGEEGGEAPQEPQS
modifications: in the coacervate experiments labelled with Cy5 or DyLight 405 (NHS ester, aspecific)

How the values were obtained:
BiExoS [change] peptide = test: fluorescence polarisation
T14-3-3 = test: Fluorescence anisotropy assay, titration of T14-3-3 to labeled peptides; type: binding; conditions: Supplementary Table 1; unphosphorylated peptide, cf. Supplementary Fig. 7
Description: 14-3-3 was titrated in a 2-fold dilution series to 10 nM of fluorescently labeled peptide in coacervate buffer (20 mM HEPES, 100 mM KCl, pH 7.5) supplemented with 0.1% (v/v) of Tween 20 and 1 mg/mL of bovine serum albumin (BSA) to prevent aspecific hydrophobic interactions. Dilution series were prepared in low volume, non-binding polystyrene 384-well plates (Corning 4514 Black Round Bottom 384-well plates). Measurements were performed directly after plate preparation using a Tecan Spark plate reader at room temperature. The following settings were used: excitation 485 ± 20 nm; emission: 535 ± 25 nm; mirror: Dichroic 510; number of flashes: 30; integration time: 40 µs; settle time: 1 ms; gain: optimal; and Z-position: calculated from well. Wells containing only the labeled peptide were used to set as G-factor at 35 mAU. All data were analyzed using GraphPad Prism (version 10.0.3) and fitted using a four-parameter logistic model (4PL) to determine binding affinities (KD). All results are based on triplicates, with the mean and standard error determined by GraphPad.

14-3-3γ = target: T1, 14-3-3γ; test: Fluorescence anisotropy assay, titration of 14-3-3γ to labeled peptide; type: binding; conditions: ratio of KD values from fluorescence anisotropy

Row | Molecule | Kd (BiExoS [change] peptide) [µM] | other results
1 | His-tagged full-length 14-3-3γ (from UniProt P61981 1-247) (natural protein) | 0.059 | 
2 | FITC-Ahx-QHRYSTPHAFTFNTSSPSSEGSLSQRQRSTSTPNVH-Ac [c-Raf S233/S259, unphosphorylated FITC-labeled c-Raf S233/S259 peptide] |  | Binding mode to 14-3-3 (T14-3-3): No binding
3 | CC(C)C[C@H](NC(=O)[C@H](CO)NC(=O)CNC(=O)[C@H](CCC(=O)O)NC(=O)[C@H](CO)NC(=O)[C@H](CO)NC(=O)[C@@H]1CCCN1C(=O)[C@H](CO)NC(=O)[C@H](CO)NC(=O)[C@@H](NC(=O)[C@H](CC(N)=O)NC(=O)[C@H](Cc1ccccc1)NC(=O)[C@@H](NC(=O)[C@H](Cc1ccccc1)NC(=O)[C@H](C)NC(=O)[C@H](Cc1c[nH]cn1)NC(=O)[C@@H]1CCCN1C(=O)[C@@H](NC(=O)[C@H](COP(=O)(O)O)NC(=O)[C@H](Cc1ccc(O)cc1)NC(=O)[C@H](CCCNC(=N)N)NC(=O)[C@H](Cc1c[nH]cn1)NC(=O)[C@H](CCC(N)=O)NC(=O)CCCCCNC(=S)Nc1ccc2c(c1)C(=O)OC21c2ccc(O)cc2Oc2cc(O)ccc21)[C@@H](C)O)[C@@H](C)O)[C@@H](C)O)C(=O)N[C@@H](CO)C(=O)N[C@@H](CCC(N)=O)C(=O)N[C@@H](CCCNC(=N)N)C(=O)N[C@@H](CCC(N)=O)C(=O)N[C@@H](CCCNC(=N)N)C(=O)N[C@@H](CO)C(=O)N[C@H](C(=O)N[C@@H](COP(=O)(O)O)C(=O)N[C@H](C(=O)N1CCC[C@H]1C(=O)N[C@@H](CC(N)=O)C(=O)N[C@H](C(=O)N[C@@H](Cc1c[nH]cn1)C(N)=O)C(C)C)[C@@H](C)O)[C@@H](C)O [FITC-c-Raf pS] |  | difference in bulk affinity of the peptide for the two isoforms (14-3-3σ vs 14-3-3γ) (14-3-3γ): 40 fold
4 | B1 | 23 | 
